Data on 28 sequences can be found in the Immune Epitope Database (IEDB).

Assay [1] has as its target HLA-A*11:01. Description: IEDB peptide-MHC binding, purified MHC/competitive/fluorescence; ≥ and ≤ were set here for values at or beyond the usual limits of such assays.
For assay [2], the target named is HLA-A*02:01. The assay is described as above.
Assay [3] has as its target HLA-B*15:01. The description is as above.
Assay [4] concerns the target HLA-A*03:01. The assay is described as above.
In assay [5] the target is HLA-A*24:02. The assay is described as above.
Assay [6] has as its target HLA-A*02:11. Description: IEDB peptide-MHC binding, purified MHC/competitive/fluorescence; filed as Kd, often an IC50 or EC50 that approximates it; ≥ and ≤ were set here for values at or beyond the usual limits of such assays. To be noted: source organism: Coxiella burnetii 'MSU Goat Q177'.
In assay [7] the target is HLA-A*02:12. The description is as above.
The target in assay [8] is HLA-A*03:01. The description is as above.
Assay [9] has as its target HLA-A*26:01. The assay is described as above.
For assay [10], the target named is HLA-B*15:01. Described as above.
Assay [11] deals with HLA-B*18:01. Described as above.
Assay [12] deals with HLA-B*27:03. The assay is described as above.
Assay [13] deals with HLA-B*39:01. The assay is described as above.
The target in assay [14] is HLA-B*46:01. Described as above.
In assay [15] the target is HLA-B*51:01. The description is as above.
In assay [16] the target is HLA-B*57:01. The description is as above.
Assay [17] deals with HLA-B*53:01. As to the kind of experiment: IEDB peptide-MHC binding, purified MHC/competitive/radioactivity; filed as Kd, often an IC50 or EC50 that approximates it; ≥ and ≤ were set here for values at or beyond the usual limits of such assays. To be noted: source organism: Dengue virus 1 Brazil/97-11/1997.
Assay [18] addresses HLA-B*57:01. Described as above.
For assay [19], the target named is HLA-B*58:01. The assay is described as above.
Assay [20] has as its target HLA-A*01:01. Description: IEDB peptide-MHC binding, purified MHC/competitive/fluorescence; filed as Kd, often an IC50 or EC50 that approximates it; ≥ and ≤ were set here for values at or beyond the usual limits of such assays.
Assay [21] concerns the target HLA-A*29:02. The assay is described as above.
The target in assay [22] is HLA-A*02:01. The assay is described as above. To be noted: source organism: Pseudomonas aeruginosa PACS2.
In assay [23] the target is HLA-A*69:01. The description is as above. The note with it: source organism: Pseudomonas aeruginosa PACS2.
In assay [24] the target is HLA-A*32:01. As to the kind of experiment: IEDB peptide-MHC binding, purified MHC/competitive/radioactivity; filed as Kd, often an IC50 or EC50 that approximates it; ≥ and ≤ were set here for values at or beyond the usual limits of such assays. The note with it: source organism: Dengue virus 1 Singapore/S275/1990.
Assay [25] addresses HLA-A*68:02. As to the kind of experiment: IEDB peptide-MHC binding, purified MHC/competitive/fluorescence; filed as Kd, often an IC50 or EC50 that approximates it; ≥ and ≤ were set here for values at or beyond the usual limits of such assays.
The mark [26] stands for this setting: source organism: Vaccinia virus WR.
The mark [27] stands for this setting: source organism: Sudan ebolavirus.
[28] abbreviates: source organism: Zaire ebolavirus.
Setting [29] is: source organism: Coxiella burnetii 'MSU Goat Q177'.
[30] abbreviates: source organism: Vaccinia virus.
[31] abbreviates: source organism: Dengue virus 1 Brazil/97-11/1997.
Where [32] appears, read: source organism: Salmonella enterica subsp. enterica serovar Typhi.
The mark [33] stands for this setting: source organism: Pseudomonas aeruginosa PACS2.
The mark [34] stands for this setting: source organism: Escherichia coli 536.
[35] abbreviates: source organism: Escherichia coli str. K-12 substr. MG1655.
The mark [36] stands for this setting: source organism: Dengue virus 1 Singapore/S275/1990.
The mark [37] stands for this setting: source organism: Dengue virus 4 Philippines/H241/1956.

pIC50, pKd: −log10 of the molar value. Bounds are passed on as bounds.

What is called pIC50 is the negative decadic logarithm of the IC50, by convention in mol/L. As for LNTIQFMHE, the pIC50 in assay [1] (setting [26]) was at most 3.83.
VVTNSTLEV: the pIC50 in assay [2] (setting [27]) was 5.10; in assay [3] (setting [27]) it was at most 3.94.
For RTYTILNRK, the negative-log IC50 (pIC50) in assay [4] (setting [27]) was 5.98; in assay [1] (setting [27]), 6.79; in assay [5] (setting [27]), 4.37.
For GYYSTTIRY, the pIC50 in [4] (setting [28]) was at most 3.52; in assay [5] (setting [28]), 6.08; in [3] (setting [28]) it was 5.34.
A word on the pKd: it is the negative decadic logarithm of the Kd, by convention in mol/L. Turning to YYLIKYLHV, the pKd in [6] was 7.15; in [7] (setting [29]), 5.93; in assay [8] (setting [29]), at most 4.70; in [9] (setting [29]) it was at most 4.70; in [10] (setting [29]), at most 4.70; in assay [11] (setting [29]) it was at most 4.70. Moreover, the pKd in assay [12] (setting [29]), in [13] (setting [29]), in assay [14] (setting [29]), in [15] (setting [29]) and in assay [16] (setting [29]) was at most 4.70 throughout.
As for RMNSNQVCI, the pIC50 was 5.46 in assay [2] (setting [30]), at most 3.93 in assay [4] (setting [30]), 7.09 in [5] (setting [30]) and 4.74 in assay [3] (setting [30]).
On to HILRSQGPF, for which the pIC50 in assay [2] (setting [28]) was at most 3.29; in [5] (setting [28]), 5.24; in assay [3] (setting [28]), 4.89.
Regarding PVYRDHSEK, the values for the pIC50 in assay [4] (setting [28]) and in [1] (setting [28]) were 5.12 and 5.15, respectively.
Take GASTSQETW: the pKd in [17] was 6.21; in assay [18] (setting [31]), 7.99; in assay [19] (setting [31]), 8.53.
Regarding SATRLENIMW, the pKd in [18] (setting [31]) was 7.93; in assay [19] (setting [31]) it was 7.16.
Take RSTKGGQQK: the negative logarithm of the IC50 (pIC50) is 5.25 in assay [4] (setting [28]) and 5.74 in assay [1] (setting [28]).
As for GTTEVNGLY, the pKd was 7.82 in [20] (setting [32]) and 5.67 in assay [8] (setting [32]).
In the case of LSAIALGVA, the pIC50 in assay [2] (setting [28]) is 4.59; in assay [3] (setting [28]) it was at most 3.85.
Consider GMIAGWHGY, for which the negative logarithm of the Kd (pKd) in assay [21] (source organism: Influenza B virus (B/Victoria/2/1987)) is 8.80.
In the case of KLIDVSKCI, the pKd is 8.07 in assay [22]; 7.96 in [7] (setting [33]); at most 4.70 in assay [8] (setting [33]); at most 4.70 in [9] (setting [33]); at most 4.70 in assay [21] (setting [33]); at most 4.70 in assay [23]. The pKd in assay [11] (setting [33]), in assay [12] (setting [33]), in [13] (setting [33]), in [14] (setting [33]), in assay [15] (setting [33]) and in assay [16] (setting [33]) was at most 4.70 in each case.
In the case of WMNHHAITY, the negative logarithm of the Kd (pKd) in assay [21] (source organism: Orientia tsutsugamushi str. Boryong) was at least 10.00.
On to ISRNTVKRY, for which the negative-log Kd (pKd) in assay [20] (setting [34]) is at most 4.70; in assay [10] (setting [34]) it was 6.55.
Take WMSNGTWNY: in [20] (source organism: Human immunodeficiency virus 1), the pKd was 8.05.
In the case of LMNFHQKKN, the results for the negative-log IC50 (pIC50) in [2] (setting [28]), in [4] (setting [28]) and in assay [3] (setting [28]) were at most 3.91, at most 3.48 and at most 3.58, respectively.
Consider VGKTSQVPK, for which the negative logarithm of the IC50 (pIC50) in assay [4] (source organism: Variola virus) was 4.87; in assay [1] (source organism: Variola virus), 5.81.
In the case of ELACAVPFY, the results for the negative logarithm of the Kd (pKd) in assay [20] (setting [35]) and in assay [10] (setting [35]) were at most 4.70 and 6.65, respectively.
On to ETKKNLTRK, for which the negative logarithm of the IC50 (pIC50) in [4] (setting [28]) was 4.30; in assay [1] (setting [28]) it was 4.85.
For MSNGEHVPF, the negative-log IC50 (pIC50) is 5.26 in assay [5] (setting [26]) and 4.31 in [3] (setting [26]).
As to TTFSLHYAW, the negative-log Kd (pKd) in assay [24] was 8.88; in [18] (setting [36]) it was 8.85; in [19] (setting [36]), 8.80.
As to RAKGSRAIW, the negative logarithm of the Kd (pKd) is 6.76 in assay [18] (setting [37]) and 7.57 in [19] (setting [37]).
FYMASTWGA gave a negative logarithm of the Kd (pKd) in assay [25] (source organism: Entamoeba dispar SAW760) of 7.08.
In the case of EAIRQIHAQ, the pKd in assay [25] (source organism: Escherichia coli HS) was 6.09.
On to ATQVEQHHR, for which the negative-log IC50 (pIC50) in [4] (setting [28]) is at most 4.04; in assay [1] (setting [28]), 5.28.
